# ± gives the standard deviation.
# Assay: protein stability index of a GFP-peptide fusion (GPS, HEK-293T) (PSI 1-6); higher = more stable
# [1] = treatment: DMSO, c terminus: a fixed tail appended
# [2] = treatment: MLN4924 1 uM, 8 h, c terminus: a fixed tail appended
# 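Note: 24-mer peptide tiles fused after GFP, lentivirally expressed, FACS-sorted into six equal bins by GFP/DsRed ratio, decoded by Illumina sequencing, PSI is the read-weighted mean bin number.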
Sequence,protein stability index [1],protein stability index [2],"protein stability index (treatment: DMSO, c terminus: native)","protein stability index (treatment: MLN4924 1 uM, 8 h, c terminus: native)"
AQPPDYTFPSGSGAHFPQVPGGAV [PI4K2A],3.93 ± 0.19,4.01 ± 0.12,,
LIERERSALGPNVTKITLESFLAW [ZC3H15],2.19 ± 0.47,2.49 ± 0.14,,
KINVNEIFYDLVRQINRKTPVPGK [RAP1B],2.44 ± 0.4,2.25 ± 0.26,,
NYCPQQTKITSAFKYINTVISCTI [EDNRA],3.3 ± 0.65,2.77 ± 0.18,,
TRNVQSVSIIDTELKVKDSQPIDL [TRIP13],4.32 ± 0.16,4.55 ± 0.19,,
SCSQNLLITQQIIPVLYCMVFIAG [P2RY14],3.03 ± 0.58,2.87 ± 0.73,,
MSTIGSFEGFQAVSLKQEGDDQPS [TPRG1],5.22 ± 0.082,5.22 ± 0.078,,
RNLSYTCRANRNCPIDQHHRNQCQ [NR2F2],3.32 ± 0.1,3.36 ± 0.24,,
FEEQENYFLLCDVLPEDRILREEL [ZNF277],3.26 ± 0.16,3.5 ± 0.67,,
CSISKMEEEAGQTSIEPSKSSIIP [ZER1],4.59 ± 0.28,4.53 ± 0.2,,
RLPFLSAFERQQVENRVVEEAKGL [ZBED1],4.17 ± 0.14,4.2 ± 0.22,,
ERPMYGRDSAYQSITHYRPVSASR [EMD],3.81 ± 0.26,3.76 ± 0.28,,
HAFQKELTCVICLNYLVDPVTICC [TRIM43],3.04 ± 0.33,2.95 ± 0.4,,
ADGAWVVKMFYSFQDKRNLYLIME [STK38L],3.11 ± 1,2.99 ± 0.79,,
SWASAQVQILCHTYWEHWTSQGQV [RTP4],2.8 ± 0.74,2.77 ± 0.75,,
AEFEKLSDQVKISEEALRADGFGD [SAT2],5.33 ± 0.11,5.45 ± 0.15,,
QTKQVYDAVGMLGIEEVTYENCLQ [NLN],3.56 ± 0.4,3.73 ± 0.53,,
DPFTVPTISFICRELDAISTNEEE [PRIM1],4.85 ± 0.31,4.78 ± 0.3,,
PQGLFVEALSVPLSLCVSSHLALP [CLPTM1],2.96 ± 0.59,2.91 ± 0.41,,
DESAIDFSAYIDSMAAVPTLELCH [CEBPD],3.17 ± 0.26,3.31 ± 0.17,,
LLLHRGAGKEAMTSDGYTALHLAA [RIPK4],2.33 ± 0.25,2.22 ± 0.48,,
TLRRIQASMAPAAALPPVPSPPAA [SERTAD1],3.6 ± 0.23,3.8 ± 0.31,,
IHSPAHPEIEKADDHLQQPLQNQK [ZNF649],5.39 ± 0.16,5.35 ± 0.37,,

Sequence,protein stability index [1],protein stability index [2],"protein stability index (treatment: DMSO, c terminus: native)","protein stability index (treatment: MLN4924 1 uM, 8 h, c terminus: native)"
MSTGPIAESWCYTQVKVVKFSYMW [SPOPL],2.41 ± 0.08,3.35 ± 1.5,,
AVYDGSSSVEDLKAKFCSTVANDV [NETO1],4.03 ± 0.19,4.17 ± 0.31,,
LLFVRGAGNCPECGTPLRKSNFRV [MNAT1],2.2 ± 0.19,2.6 ± 0.32,,
EKFSSSLHELSSRVEASHLTTSQE [FBF1],4.99 ± 0.19,5.01 ± 0.11,,
AALTEALQRQAEQNPTASYYNVVL [FCHO1],2.3 ± 0.33,2.21 ± 0.33,,
LNRPGPAPLSSRKHVLYVEHRHLN [TCF25],3.14 ± 0.28,2.8 ± 0.15,,
VQYLQHLGTENLHLIFSYSVWVLR [VPS39],3.23 ± 0.39,2.96 ± 0.41,,
RRERELQHAALGGTATRQNNWPPL [SCAMP3],3.54 ± 0.16,3.82 ± 0.21,,
TSSSDDDEEVSGSSKTITAEIPDG [C18orf25],5.59 ± 0.19,5.49 ± 0.23,,
FDLERENACATKEQKNHTFPRLNR [PLD5],4.55 ± 0.37,4.75 ± 0.28,,
FVVMGVIGGLLGATFNCLNKRLAK [CLCN6],2.55 ± 0.39,2.7 ± 0.59,,
HGQEGSILVTKVEEPSKYGVVVCE [GMPPB],3.9 ± 0.13,3.94 ± 0.25,,
TVGIYFGLVYRIHSVLQGFIPLFQ [TMEM40],3.16 ± 0.58,3.16 ± 0.54,,
GETRICKIYDSPCLPEAEAMFAIN [RAD51],3.53 ± 0.4,3.65 ± 0.35,,
NNKYSYTSNSDDNMLKNIELFDKL [KCTD10],3.9 ± 0.068,3.9 ± 0.26,,
RRVHLTEDQWGKGTLTPRMTTDFD [TRIM9],3.92 ± 0.13,4 ± 0.18,,
GEEQLKTHKKCKEEVVSTLDAVQV [FCHO1],4.13 ± 0.38,4.12 ± 0.19,,
SGLFNHRGIHNIQKRYHCKECGKV [ZSCAN9],3.08 ± 0.41,3.13 ± 0.35,,
TLVMFQSLGERMNTFVRYLLKRIK [KCNK9],3 ± 0.54,2.73 ± 0.23,,
HPWKWSNGKEFNNWFNVTGSDKCV [CD69],2.58 ± 0.53,2.46 ± 0.17,,
FSRAPVSALPLAPNHLGGGAVVLG [STX5],2.81 ± 0.11,2.98 ± 0.17,,
FLRQKVLSLPLPDPLKYYLLYYRE [PCMTD2],2.24 ± 0.34,2.26 ± 0.31,,
CFYRGYTSGVAAVQDWYHFHYVDI [SCNN1D],3.06 ± 0.86,2.92 ± 0.75,,

Sequence,protein stability index [1],protein stability index [2],"protein stability index (treatment: DMSO, c terminus: native)","protein stability index (treatment: MLN4924 1 uM, 8 h, c terminus: native)"
HMEGLIVRERILGADNIDVSHPII [FEM1B],3.25 ± 0.23,2.95 ± 0.28,,
GDFAWERVRGLGLPKLYLPTGPRR [CDKN1A],2.98 ± 0.32,3.32 ± 0.4,,
YGHELLINTLITSGADTAKCGIHS [ANKRD44],2.27 ± 0.38,1.99 ± 0.2,,
MPRAPKRQRCMPEEDLQSQSETQG [MAGEA10],5.02 ± 0.42,5.05 ± 0.12,,
MHRLGEPQARMREENMERIGEEVR [BEX1],5.14 ± 0.13,5.2 ± 0.21,,
QAIDATVAAELLNHLLESMPLREG [HES6],2.43 ± 0.41,2.3 ± 0.28,,
IEEACYAQTIPTKDRLEGLLAFKE [AUH],3.73 ± 0.46,3.55 ± 0.69,,
TKMWHPNIYETGDVCISILHPPVD [CDC34],2.23 ± 0.2,2.12 ± 0.37,,
NSDDSYTCECLEGFRLAEDGKRCR [MATN2],3.54 ± 0.34,4.12 ± 0.67,,
PEDLQTDLAKLVDQQNPTLGETPE [ZNF449],5.62 ± 0.23,5.73 ± 0.2,,
GQVLHFENVKDVPFGFQTVTSDVN [SERPINB5],3.85 ± 0.36,3.84 ± 0.42,,
DVHHGQGTQFTFDQDPSVLYFSIH [HDAC6],2.04 ± 0.34,2.02 ± 0.34,,
DVVEYLVDRCGASVEAGGSVHFDG [FEM1A],2.48 ± 0.32,2.46 ± 0.6,,
LPDVEPAAFLALLRFLYSDEVQIG [BTBD1],2.16 ± 0.43,2.28 ± 0.28,,
YVKPQSCIDIVIRHVAPIPSHYDV [MOSPD3],2.97 ± 0.74,2.74 ± 0.85,,
NHLPPQTKRSSRNPVFQDSWDTES [FAM104A],4.48 ± 0.29,4.59 ± 0.46,,
EVLVKSNNLTDRIVVIPGKVEEVS [CARM1],3.66 ± 0.19,3.8 ± 0.43,,
RERDSVPKPSVLFLHPDLGVGGAE [ALG2],4.08 ± 0.41,4.21 ± 0.16,,
KHWREWGSHAQTSQIQSIRRIQQ [CRYBA1],,,3.25 ± 0.69,3.19 ± 0.46
LTRFLSRVIKCDPDCLRACQEQIE [CCND1],2.34 ± 0.16,2.56 ± 0.07,,
KMNLYESFAQATQLGDLHTCLMMD [INTS3],2.5 ± 0.2,2.58 ± 0.37,,
TSYRLQGLKPNSLYYFRLAARSPQ [PTPRD],2.33 ± 0.52,2.42 ± 0.39,,
LAKALLKRTAQAIEPYITNFFNQV [PDS5B],2.58 ± 0.71,2.7 ± 0.72,,

Sequence,protein stability index [1],protein stability index [2],"protein stability index (treatment: DMSO, c terminus: native)","protein stability index (treatment: MLN4924 1 uM, 8 h, c terminus: native)"
GSGGGYGGGMRVCGFGGGAGSVFG [KRT15],2.18 ± 0.29,2.34 ± 0.22,,
RRKREVLVEDMVSQEEAQGLPSSE [ZNF24],5.31 ± 0.2,5.43 ± 0.15,,
EGSLQQPKAQSAMSPYLVPDTQAL [SMG5],4.39 ± 0.27,4.5 ± 0.18,,
LSYRNGYAIVRRPTVGIGGDRLQF [EFHC1],2.23 ± 0.24,2.35 ± 0.29,,
KTSQLSYYYMGFYIHSCPKMKYKG [ATE1],2.47 ± 1.2,2.25 ± 0.66,,
TSLSLAQVGAKGDTANEIGQVLHF [SERPINB5],3.06 ± 0.28,3.18 ± 0.37,,
KEQSKELQMKLEKLREKERKKEAK [FAM50A],5.02 ± 0.54,5.55 ± 0.16,,
MTRNDVLTGLQLKLGPALKIYEYH [SAMD13],2.24 ± 0.42,2.22 ± 0.3,,
PQSSKSTVVKSLIDNSSEIEDEDQ [FAN1],5.65 ± 0.14,5.6 ± 0.25,,
QRLGIPKDPRQWTETHVRDWVMWA [ETS1],2.37 ± 0.31,2.48 ± 0.3,,
LMLAGMGLHYIAFRKVKQMHLNFM [DNAJC4],2.45 ± 0.82,2.41 ± 0.33,,
SPLAADPACLGQPHTPGKPTSSCT [FOXJ1],4.95 ± 0.17,4.89 ± 0.2,,
LIAEVMGEDIPEKIKDEVHPEVKC [C8orf76],4.51 ± 0.58,4.31 ± 0.14,,
LHEVLTEVVPIHGRGNFPTLEITL [TENT5C],2.73 ± 0.56,2.53 ± 0.53,,
DKMEAYNIDETCGRHHSQSTEVQA [TEKT4],4.91 ± 0.19,4.9 ± 0.17,,
ARERAKLQIELGKCKAEHDQLLLN [LMNB1],3.47 ± 0.098,3.14 ± 0.1,,
KQPLRKYVTPSDFDQLKQFLTFDK [EFHC1],2.94 ± 0.18,3.02 ± 0.17,,
DIQIVERKKSADVLALADEAGYYF [ADAMTSL2],3.08 ± 0.23,3.39 ± 0.2,,
PPAADAPVTQIGFEAPPLQGQAAA [TRIM55],5.07 ± 0.47,5.15 ± 0.28,,
RLWSHRSYKARLPLRLFLIIANTM [SCD],2.29 ± 0.54,2.13 ± 0.23,,
